From US20230218776A1, “ANTI-NTB-A ANTIBODIES AND RELATED COMPOSITIONS AND METHODS” (SEAGEN INC., priority 2015, published 2023)
“Also recorded” adds a separate entry of the source. Read-outs that look alike come from different tables or passages of the source. Where a SMILES comes first, the peptide text is derived from it. [ ]: non-standard residue; d: D form. The star is where a group is joined. Dolaproine = CO[C@@H]([C@@H]1CCCN1)[C@@H](C)C(=O)O; Dil = CC[C@H](C)[C@H](NC)[C@@H](CC(=O)O)OC; X1 = C[C@@H](N*)[C@@H](O)c1ccccc1; NMeV = CN[C@H](C(=O)O)C(C)C

What was measured:
[1] = test system: resting human B lymphocytes; assay: Cytotoxicity on resting human lymphocytes, Cell-Titer Glo, 96 hours; type: cell-based; details: for IC50: 96 hours; for ADC concentration with cytotoxic effect on resting B lymphocytes: resting human B lymphocytes, 96 hour cytotoxicity assay
Method: (§1) To assess the cytotoxic effects of anti-NTB-A ADCs on resting human T and B lymphocytes, purified cells were seeded into black 96-well assay plates. Cells were then treated with anti-NTB-A ADCs starting at 10 ug/mL titrated down 5-fold for a total of 8 dilution points. For free drug treatment, cells were dosed with either MMAE starting at 1,000 nM or free PBD dimer starting at 100 nM titrated down 5-fold for a total of 8 dilution points. Plates were incubated at 37° C., 5% CO2 for 96 hours then allowed to equilibrate to room temperature. An equal volume of Cell-Titer Glo reagent was added to each well and the plate was incubated an additional 30 minutes at room temperature. Plates were then read on a Perkin Elmer Envision plate reader. Dose effect curves and IC50 values were calculated using GraphPad Prism software.

[2] = test system: resting human T lymphocytes; assay: as above; type: cell-based
Method: as §1

Normal human T cells [3] = assay: Complement-dependent cytotoxicity (CDC), Sytox Green; type: cell-based; details: 0.02-50 μg/mL, human serum, 2 hours
Method: (§2) Complement-Dependent Cytotoxicity (CDC): Normal human T cells (All Cells, Alameda, Calif.) or cancer cell lines (ATCC, Manassas, Va.) were labelledlabeled with 5 μM Sytox Green (Life Technologies, Grand Island, N.Y.), then bound with serial a serial dose titrations of anti-human NTB-A h20F3 antibody or PBD dimer ADCies (0.02-50 μg/mL) in RPMI1640 media+1020% human serum (Complement Technology, Tyler, TX or Solomon Park Research Laboratories, Kirkland, Wash. Cells were incubated at 37° C., 5% CO2 for 2 hours, and fluorescence from lysed cells was measured with an Envision plate reader (Perkin Elmer, Waltham, Mass.). Data was expressed as a percentage of maximum cell lysis determined with a positive control of 1% TritonX-100-treated cells (Sigma, ST. Louis, Mo.).
(§3) Three cell types were used for analysis: normal human T cells, WIL2-S cells, and Raji cells. Expression of relevant receptors on each cell type is found in Table 7 and is indicated as number of receptor per cell.

Normal human T cells [4] = assay: ADCC, flow cytometry-based assay with NK effector cells; type: cell-based; details: NK effector to target 10:1, 4 hours
Method: A flow cytometry-based assay was used to measure ADCC activity on normal human T cells. PKH2-labeled normal human T cell targets were bound with titrations of antibody (0.1 ng/mL-10 μg/mL) and then incubated with effector NK cells at an effector to target ratio of 10:1 for 4 hours at 37° C., 5% CO2. Viability was determined by 7-AAD incorporation as measured on the FACsCalibur flow cytometer (BD BioSciences, San Jose, Calif.).

Normal human T cells [5] = assay: ADCP with monocyte-derived macrophages; type: cell-based; details: dilution series starting at 2 μg/mL
Method: (§4) To assess NTB-A mediated ADCP activity, normal T lymphocytes or tumor cells were labeled with the red fluorescent membrane dye, PKH26, then labeled with antibody or ADC in a 5-point, 10-fold dilution series starting at 2 μg/mL. Cells were then incubated for 30 minutes on ice and washed twice with PBS. Cells were mixed with monocyte-derived macrophages for one hour at 37° C. The cell mixture was then stained with Alexa Fluor 488-conjugated murine anti-CD11b to label macrophages and analyzed by flow cytometry to detect PKH26+CD11b+ double-labeled fluorescent cells. Phagocytic activity was calculated as (percent PKH26+CD11b+)/(percent CD11b+cells) multiplied by one hundred.

Raji cell line [6] = assay: Complement-dependent cytotoxicity (CDC), Sytox Green; type: cell-based; details: 0.02-50 μg/mL, human serum, 2 hours
Method: as §2, §3

WIL2-S cell line [7] = assay: as above; type: cell-based; details: 0.02-50 μg/mL, human serum, 2 hours
Method: as §2, §3

WIL2-S cell line [8] = assay: ADCC, chromium-51 release with NK effector cells; type: cell-based; details: NK effector to target 10:1, 4 hours
Method: Antibody-Dependent Cellular Cytotoxicity (ADCC) Activity Assay: ADCC cytotoxic activity was measured by chromium-51 release in which effector natural killer (NK) cells kill (lyse) target cells via binding to the antibody or ADC on the target cells. WIL2-S cells were labeled with chromium-51, bound with antibody (0.1 ng/mL-10 μg/mL), and then incubated with NK cells at an effector to target ratio of 10:1 for 4 hours at 37° C., 5% CO2. Supernatant was removed to a filter plate and chromium-51 counts were measured with a TopCount (Perkin Elmer, Waltham, Mass.). Data was expressed as a percentage of maximum specific cell lysis determined with a positive control of 1% TritonX-100-treated cells (Sigma, St. Louis, Mo.).

Raji cell line [9] = assay: ADCP with monocyte-derived macrophages; type: cell-based; details: dilution series starting at 2 μg/mL
Method: as §4

WIL2-S cell line [10] = assay: ADCP with monocyte-derived macrophages; type: cell-based; details: dilution series starting at 2 μg/mL
Method: as §4

cynomolgus-NTB-A = assay: Binding to 293-F17 cells overexpressing cynomolgus-NTB-A, flow cytometry; details: 293-F17/cynomolgus-NTB-A cells; 20 μg/mL antibody
cynomolgus-NTB-A, sequence (as listed by the source): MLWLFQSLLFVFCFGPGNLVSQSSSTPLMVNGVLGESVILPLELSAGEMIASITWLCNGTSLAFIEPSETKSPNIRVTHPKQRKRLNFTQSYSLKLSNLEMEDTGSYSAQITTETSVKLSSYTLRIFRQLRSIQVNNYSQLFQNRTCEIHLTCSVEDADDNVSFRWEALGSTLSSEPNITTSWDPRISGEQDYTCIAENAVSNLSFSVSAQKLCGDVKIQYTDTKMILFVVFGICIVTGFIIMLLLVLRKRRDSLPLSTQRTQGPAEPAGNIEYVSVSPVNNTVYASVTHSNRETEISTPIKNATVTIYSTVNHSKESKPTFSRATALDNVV
Method: (§5) Dose titrations of the anti-human NTB-A antibodies conjugated to Alexa Fluor 647 (, h20F3_HDLD-AF647) were used to generate saturation binding curves. Antigen positive Ramos cells were plated at 1×10^5 cells per well in a 96 well V-bottom plate (Thermo Scientific, Rochester, N.Y.). Three-fold serial dilutions of 2× concentrated antibodies were prepared in FACs buffer (PBS+2% fetal bovine serum) and were added to the cells in duplicate. The antibody solutions were incubated with cells for 1 hour on ice, protected from light. The cells were washed twice with FACs buffer and analyzed on the LSRII flow cytometer (BD BioSciences, San Jose, Calif.). KD values were determined with GraphPad Prism software (La Jolla, Calif.). Anti-human NTB-A antibodies h20F3_HDLD and chimeric 20F3 were tested for binding to 293-F17 cells overexpressing cynomolgus-NTB-A. 293-F17/cynomolgus-NTB-A cells were plated at 5×10^5 cells/well in FACS buffer (PBS+2% fetal bovine serum+0.02% azide) and incubated with 20 μg/mL antibody for 30 minutes on ice. The cells were washed twice and stained with 30 μg/mL goat anti-human IgG-PE (Jackson ImmunoResearch, West Grove, Pa.) for 30 minutes, on ice and protected from light. Cells were again washed twice with FACs buffer. Stained cells were analyzed on the FACs Calibur flow cytometer (BD BioSciences, San Jose, Calif.).

human NTB-A = molecular target: T1, human NTB-A (Homo sapiens, UniProt Q96DU3); assay: Saturation binding (Kd) of AF647-labelled antibody on Ramos cells; details: 1 hour on ice
T1 construct: endogenous in cells; host or cells: Ramos cells
T1 sequence (Q96DU3 22-332): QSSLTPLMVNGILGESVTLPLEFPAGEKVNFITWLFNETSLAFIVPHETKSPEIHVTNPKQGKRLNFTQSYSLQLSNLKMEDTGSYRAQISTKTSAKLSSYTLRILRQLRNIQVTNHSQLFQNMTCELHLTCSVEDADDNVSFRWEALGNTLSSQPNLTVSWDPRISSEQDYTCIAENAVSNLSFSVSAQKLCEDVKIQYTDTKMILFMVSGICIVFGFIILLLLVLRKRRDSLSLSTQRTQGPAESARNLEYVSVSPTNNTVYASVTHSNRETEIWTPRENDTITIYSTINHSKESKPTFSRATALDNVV
Method: as §5

[11] = Donor 1, B cell, NTB-A receptor # 6,811
[12] = Donor 2, B cell, NTB-A receptor # 11,037
[13] = Donor 3, B cell, NTB-A receptor # 8,771
[14] = Donor 4, T cell, NTB-A receptor # 5,547
[15] = Donor 5, T cell, NTB-A receptor # 7,979
[16] = Donor 6, T cell, NTB-A receptor # 5,522

CC[C@H](C)[C@@H]([C@@H](CC(=O)N1CCC[C@H]1[C@H](OC)[C@@H](C)C(=O)N[C@H](C)[C@@H](O)c1ccccc1)OC)N(C)C(=O)[C@@H](NC(=O)[C@@H](NC)C(C)C)C(C)C [Free MMAE, monomethyl auristatin E, reference compound] (H-[NMeV]V[Dil][Dolaproine]-X1)
IC50 ([1]; Donor 1, B cell, NTB-A receptor # 6,811, free drug, read-out: IC50): 3 nM | IC50 ([1]; Donor 2, B cell, NTB-A receptor # 11,037, free drug, read-out: IC50): 2 nM | IC50 ([1]; Donor 3, B cell, NTB-A receptor # 8,771, free drug, read-out: IC50): 5 nM | IC50 ([2]; Donor 4, T cell, NTB-A receptor # 5,547, free drug, read-out: IC50): > 1000 nM | IC50 ([2]; Donor 5, T cell, NTB-A receptor # 7,979, free drug, read-out: IC50): > 1000 nM | IC50 ([2]; Donor 6, T cell, NTB-A receptor # 5,522, free drug, read-out: IC50): > 1000 nM

Campath: anti-CD52 antibody control [reference compound]
CDC Maximum % Specific Cell Lysis (Normal human T cells [3]): 108 ± 5.2% | ADCC Maximum % Specific Cell Lysis (Normal human T cells [4]): 60 ± 3.5% | ADCP Maximum % Phagocytosis (Normal human T cells [5]): 57%

Rituximab: anti-CD20 antibody control [reference compound]
CDC Maximum % Specific Cell Lysis (Raji cell line [6]): 45 ± 5.7% | CDC Maximum % Specific Cell Lysis (WIL2-S cell line [7]): 66 ± 1.4% | ADCC Maximum % Specific Cell Lysis (WIL2-S cell line [8]): 42 ± 6.0% | ADCP Maximum % Phagocytosis (Raji cell line [9]): 57% | ADCP Maximum % Phagocytosis (WIL2-S cell line [10]): 56%

B1: c20F3-1910(2) (conjugate)
VH: QIQLVQSGPELKKPGETVKISCKASGYTFTNYGMNWVKQAPGKDLKWMGWINTYSGEPRYADDFKGRFAFSLEKSANTAYLQINNLKNEDMATYFCARDYGRWYFDVWGTGTTVTVSS
VL: QIVLSQSPAILSASPGEKVTMTCRASSSVSHMHWYQQKPGSSPKPWIYATSNLASGVPARFSGSGSGTSYSLTISRVEAEDAATYYCQQWSSTPRTFGGGTKLEIKR
IC50 [1, 11]: 1,468 ng/mL | IC50 [1, 12]: 1,270 ng/mL | IC50 [1, 13]: 3,421 ng/mL | ADC concentration with cytotoxic effect on resting B lymphocytes [1]: > 1,000 ng/mL | IC50 [2, 14]: >10,000 ng/mL | IC50 [2, 15]: >10,000 ng/mL | IC50 [2, 16]: >10,000 ng/mL

B2: chimeric: chimeric form of the 20F3 anti-NTB-A antibody (antibody, V domains shown)
VH: B1 VH
VL: B1 VL
Cyno binding (cynomolgus-NTB-A): positive

B3: c20F3-vcMMAE(4): chimeric 20F3 vcMMAE auristatin ADC, drug load 4 (conjugate)
VH: B1 VH
VL: B1 VL
modifications: non-natural residues
IC50 [1, 11]: >10,000 ng/mL | IC50 [1, 12]: >10,000 ng/mL | IC50 [1, 13]: >10,000 ng/mL | ADC concentration with cytotoxic effect on resting B lymphocytes [1]: no cytotoxic effect | IC50 [2, 14]: >10,000 ng/mL | IC50 [2, 15]: >10,000 ng/mL | IC50 [2, 16]: >10,000 ng/mL

B4: HDLD: humanized 20F3: HD (SEQ ID NO:8) with LD (SEQ ID NO:18); preferred variant (antibody, V domains shown)
VH: QIQLVQSGSELKKPGASVKVSCKASGYTFTNYGMNWVRQAPGQDLKWMGWINTYSGEPRYADDFKGRFVFSLDKSVNTAYLQISSLKAEDTAVYYCARDYGRWYFDVWGQGTTVTVSS
VL: QIVLSQSPATLSLSPGERATMSCRASSSVSHMHWYQQKPGQAPRPWIYATSNLASGVPARFSGSGSGTDYTLTISSLEPEDFAVYYCQQWSSTPRTFGGGTKVEIKR
modifications: mature heavy chain variable region of humanized 20F3 HD; mature light chain variable region of humanized 20F3 LD
notes: preferred variant
Kd (human NTB-A): ~2 nM | Cyno binding (cynomolgus-NTB-A): retained binding; also recorded: positive

B5: h20F3wt: humanized 20F3 HDLD antibody with wild-type IgG1 (antibody, V domains shown)
VH: B4 VH
VL: B4 VL
CDC Maximum % Specific Cell Lysis (Normal human T cells [3]): 1.3 ± 2.8% | CDC Maximum % Specific Cell Lysis (Raji cell line [6]): 2.1 ± 0.6% | CDC Maximum % Specific Cell Lysis (WIL2-S cell line [7]): 0.0 ± 0.0% | ADCC Maximum % Specific Cell Lysis (Normal human T cells [4]): 38 ± 0.8% | ADCC Maximum % Specific Cell Lysis (WIL2-S cell line [8]): 21 ± 0.6%
